First the molecules themselves.
B1: LINE1-full (parent)
chain: UACGUAGGUGGUUUUCCCCUGAUAGUGCUAAGGGGGCCUGGAAGUUUGGACUGGGCAGAGCUCAACACAGCGUGGCAAAGUGGCUGUGGCUAGACUGCCUCUCUGGAUUCCUCGUCACUCAGCAGGGCAUCUCUGAGAGAAAUGCC

The data set covers variants of B1. In words: self-cleavage, relative activity (ratio to wild type); higher = more cleavage; in vitro, sequencing; the parent is a self-cleaving ribozyme.
Regarding UACGUAGGUGGUUUUCCCCUGAUAGUGCUAAGGGGGCCUGGAAGUUUGGACUGGGCAGAGCUCAACACAGCGUGGCAAAGUGGCUGUGGCUAGACCGCCUCUCUGGAUUCCUCGUCACUCAGCAGAGCAUCUCUGAGAGAAAUGCC, the self-cleavage was 0.15. In the case of UACGUAGGUGGUUUUCCCCUGAUAGUGCUAAGGGGGCCUGGAAGUUUGGACUGGGCAGAGCUCAACACAGCGUGGCAAAGUGGCUGUGGCUAGACGGCCUCUCUGGAUUCCUCGUCACUCAGCAGGGCAUCUCUGAGAGAGAUGCC it was 0; in that of UACGUAGGUGGUUUUCCCCUGAUAGUGCUAAGGGGGCCUGGAAGUUUGGACUGGGCAGAGCUCAACACAGCGUGGCAAAGUGGCUGUGGCUAGACCGCCUCUCUGGAUUCCUCGUCACGCAGCAGGGCAUCUCUGAGAGAAAUGCC, 0.13. In the case of UACGUAGGUGGUUUUCCCCUGAUAGUGCUAAGGGGGCCUGGAAGUUUGGACUGGGCAGAGCUCAACACAGCGUGGCAAAGUGGCUGUGGCUAGACCGCCUCUCUGGAUUCCUCGUCACUCAGCAGGGCAUCUCUGAGAGAAACGCC it was 0.14; in that of UACGUAGGUGGUUUUCCCCUGAUAGUGCUAAGGGGGCCUGGAAGUUUGGACUGGGCAGAGCUCAACACAGCGUGGCAAAGUGGCUGUGGCUAGACGGCCUCUCUGGAGUCCUCGUCACUCAGCAGGGCAUCUCUGAGAGAAAUGCC, 0.16; in that of UACGUAGGUGGUUUUCCCCUGAUAGUGCUAAGGGGGCCUGGAAGUUUGGACUGGGCAGAGCUCAACACAGCGUGGCAAAGUGGCUGUGGCUAGACGGCCUCUCUGGACUCCUCGUCACUCAGCAGGGCAUCUCUGAGAGAAAUGCC, 0.13. In the case of UACGUAGGUGGUUUUCCCCUGAUAGUGCUAAGGGGGCCUGGAAGUUUGGACUGGGCAGAGCUCAACACAGCGUGGCAAAGUGGCUGUGGCUAGACCGCCUCUCUGGAUUCCUCGUCACUCAGCAGGGCACCUCUGAGAGAAAUGCC it was 0.24; in that of UACGUAGGUGGUUUUCCCCUGAUAGUGCUAAGGGGGCCUGGAAGUUUGGACUGGGCAGAGCUCAACACAGCGUGGCAAAGUGGCUGUGGCUAGACCGCCUCUCUGGAUUCCUCGCCACUCAGCAGGGCAUCUCUGAGAGAAAUGCC, 0.32. Regarding UACGUAGGUGGUUUUCCCCUGAUAGUGCUAAGGGGGCCUGGAAGUUUGGACUGGGCAGAGCUCAACACAGCGUGGCAAAGUGGCUGUGGCUAGACCGCCUCUCUGGAUUCCUCGGCACUCAGCAGGGCAUCUCUGAGAGAAAUGCC, the self-cleavage worked out at 0.21. In the case of UACGUAGGUGGUUUUCCCCUGAUAGUGCUAAGGGGGCCUGGAAGUUUGGACUGGGCAGAGCUCAACACAGCGUGGCAAAGUGGCUGUGGCUAGACCGCCUCUCUGGAUUCCUCGACACUCAGCAGGGCAUCUCUGAGAGAAAUGCC it was 0.13. With UACGUAGGUGGUUUUCCCCUGAUAGUGCUAAGGGGGCCUGGAAGUUUGGACUGGGCAGAGCUCAACACAGCGUGGCAAAGUGGCUGUGGCUAGACUACCUCUCUGGAUUCCUCGUCACUCAGCAGGGCAUCUCUGAGAGAAAUGCC the figure was 0.11; with UACGUAGGUGGUUUUCCCCUGAUAGUGCUAAGGGGGCCUGGAAGUUUGGACUGGGCAGAGCUCAACACAGCGUGGCAAAGUGGCUGUGGCUAGACCGCCACUCUGGAUUCCUCGUCACUCAGCAGGGCAUCUCUGAGAGAAAUGCC, 0.08; with UACGUAGGUGGUUUUCCCCUGAUAGUGCUAAGGGGGCCUGGAAGUUUGGACUGGGCAGAGCUCAACACAGCGUGGCAAAGUGGCUGUGGCUAGACCGCCCCUCUGGAUUCCUCGUCACUCAGCAGGGCAUCUCUGAGAGAAAUGCC, 0.38.

Regarding UACGUAGGUGGUUUUCCCCUGAUAGUGCUAAGGGGGCCUGGAAGUUUGGACUGGGCAGAGCUCAACACAGCGUGGCAAAGUGGCUGUGGCUAGACCGCCUCUCUGGAUUCUUCGUCACUCAGCAGGGCAUCUCUGAGAGAAAUGCC, the self-cleavage was 0.12. Consider UACGUAGGUGGUUUUCCCCUGAUAGUGCUAAGGGGGCCUGGAAGUUUGGACUGGGCAGAGCUCAACACAGCGUGGCAAAGUGGCUGUGGCUAGACCGCCUCUCCGGAUUCCUCGUCACUCAGCAGGGCAUCUCUGAGAGAAAUGCC, for which the self-cleavage was 0.13.

Turning to UACGUAGGUGGUUUUCCCCUGAUAGUGCUAAGGGGGCCUGGAAGUUUGGACUGGGCAGAGCUCAACACAGCGUGGCAAAGUGGCUGUGGCUAGACGGCCUCUCUGGAUUCCUCGUCCCUCAGCAGGGCAUCUCUGAGAGAAAUGCC, the self-cleavage amounted to 0. For UACGUAGGUGGUUUUCCCCUGAUAGUGCUAAGGGGGCCUGGAAGUUUGGACUGGGCAGAGCUCAACACAGCGUGGCAAAGUGGCUGUGGCUAGACCGCCUCUCUGGAUUCCUCGUCACUCAGCAGGGCAUCCCUGAGAGAAAUGCC, the self-cleavage was found to be 0.11. With UACGUAGGUGGUUUUCCCCUGAUAGUGCUAAGGGGGCCUGGAAGUUUGGACUGGGCAGAGCUCAACACAGCGUGGCAAAGUGGCUGUGGCUAGACCGCCUCUCUGGAUUCCUCGUCACUCAGCAGGGCAUCACUGAGAGAAAUGCC the figure was 0.11; with UACGUAGGUGGUUUUCCCCUGAUAGUGCUAAGGGGGCCUGGAAGUUUGGACUGGGCAGAGCUCAACACAGCGUGGCAAAGUGGCUGUGGCUAGACUACCUCUCUGGAUUCCUCGUCACUCGGCAGGGCAUCUCUGAGAGAAAUGCC, 0.05. In the case of UACGUAGGUGGUUUUCCCCUGAUAGUGCUAAGGGGGCCUGGAAGUUUGGACUGGGCAGAGCUCAACACAGCGUGGCAAAGUGGCUGUGGCUAGACCGCCUCUCUGGAUUCCUCGUCACUCAGCAGGGCAUCUCUGAUAGAAAUGCC it was 0.06; in that of UACGUAGGUGGUUUUCCCCUGAUAGUGCUAAGGGGGCCUGGAAGUUUGGACUGGGCAGAGCUCAACACAGCGUGGCAAAGUGGCUGUGGCUAGACGGCCUCUCAGGAUUCCUCGUCACUCAGCAGGGCAUCUCUGAGAGAAAUGCC, 0.05. In the case of UACGUAGGUGGUUUUCCCCUGAUAGUGCUAAGGGGGCCUGGAAGUUUGGACUGGGCAGAGCUCAACACAGCGUGGCAAAGUGGCUGUGGCUAGACGGCCUCUCUGGAUUCCUCGUCACUCAGCAGGGCAUCUCUGAAAGAAAUGCC it was 0.08; in that of UACGUAGGUGGUUUUCCCCUGAUAGUGCUAAGGGGGCCUGGAAGUUUGGACUGGGCAGAGCUCAACACAGCGUGGCAAAGUGGCUGUGGCUAGACGGCCUCUCUGGAUUCCUCGUCACUCAGCAGGGCAUCUCUGGGAGAAAUGCC, 0.13. Regarding UACGUAGGUGGUUUUCCCCUGAUAGUGCUAAGGGGGCCUGGAAGUUUGGACUGGGCAGAGCUCAACACAGCGUGGCAAAGUGGCUGUGGCUAGACCGCCUCUCUGGAUUCCUCGUCACUCAGCAGGGCAUCUCUGAGAGUAAUGCC, the self-cleavage came to 0.14. Take UACGUAGGUGGUUUUCCCCUGAUAGUGCUAAGGGGGCCUGGAAGUUUGGACUGGGCAGAGCUCAACACAGCGUGGCAAAGUGGCUGUGGCUAGACCGCCUCUCUGGAUUCCUCGUCACUCAGCAGGGCAUCUCUGAGAGAAGUGCC: the self-cleavage was determined as 0.13. On to UACGUAGGUGGUUUUCCCCUGAUAGUGCUAAGGGGGCCUGGAAGUUUGGACUGGGCAGAGCUCAACACAGCGUGGCAAAGUGGCUGUGGCUAGACCGCCUCUCUGGAUUCCUCGUCACUCAGCAGGGCAUCUCUGAGAGAAUUGCC, for which the self-cleavage worked out at 0.12.

Take UACGUAGGUGGUUUUCCCCUGAUAGUGCUAAGGGGGCCUGGAAGUUUGGACUGGGCAGAGCUCAACACAGCGUGGCAAAGUGGCUGUGGCUAGACCGCCUCUCUGGAUUCCUCGUCACUCAGCAGGGCAUCUCUGAGAGAAAUGCU: the self-cleavage was 0.15. With UACGUAGGUGGUUUUCCCCUGAUAGUGCUAAGGGGGCCUGGAAGUUUGGACUGGGCAGAGCUCAACACAGCGUGGCAAAGUGGCUGUGGCUAGACCGCCUCUCUGGAUUCCUCGUCACUCAGCAGGGCAUCUCUGAGAGAAAUGCA the figure was 0.25; with UACGUAGGUGGUUUUCCCCUGAUAGUGCUAAGGGGGCCUGGAAGUUUGGACUGGGCAGAGCUCAACACAGCGUGGCAAAGUGGCUGUGGCUAGACUACCUCUCUGGAUUCCUCGUCACUCAGCAGGGCAUCUCUGGGAGAAAUGCC, 0.19. On to UACGUAGGUGGUUUUCCCCUGAUAGUGCUAAGGGGGCCUGGAAGUUUGGACUGGGCAGAGCUCAACACAGCGUGGCAAAGUGGCUGUGGCUAGACCGCCUCUCUGGAUUCCUCGUCACUCAGCAGGGCAUCUCUAAGAGAAAUGCC, for which the self-cleavage turned out to be 0.24. In the case of UACGUAGGUGGUUUUCCCCUGAUAGUGCUAAGGGGGCCUGGAAGUUUGGACUGGGCAGAGCUCAACACAGCGUGGCAAAGUGGCUGUGGCUAGACGGCCUCUCUGGAUUCCUCGUCACUCAGCAGGGCAUCCCUGAGAGAAAUGCC it was 0.16; in that of UACGUAGGUGGUUUUCCCCUGAUAGUGCUAAGGGGGCCUGGAAGUUUGGACUGGGCAGAGCUCAACACAGCGUGGCAAAGUGGCUGUGGCUAGACGGCCUCUCUGGAUACCUCGUCACUCAGCAGGGCAUCUCUGAGAGAAAUGCC, 0; in that of UACGUAGGUGGUUUUCCCCUGAUAGUGCUAAGGGGGCCUGGAAGUUUGGACUGGGCAGAGCUCAACACAGCGUGGCAAAGUGGCUGUGGCUAGACCGCCUCUCUGGAUUCCUCGUCACUCAGCAGGGCAUCUCGGAGAGAAAUGCC, 0.11. In the case of UACGUAGGUGGUUUUCCCCUGAUAGUGCUAAGGGGGCCUGGAAGUUUGGACUGGGCAGAGCUCAACACAGCGUGGCAAAGUGGCUGUGGCUAGACCGCCUCUCUGGAAUCCUCGUCACUCAGCAGGGCAUCUCUGAGAGAAAUGCC it was 0.09; in that of UACGUAGGUGGUUUUCCCCUGAUAGUGCUAAGGGGGCCUGGAAGUUUGGACUGGGCAGAGCUCAACACAGCGUGGCAAAGUGGCUGUGGCUAGACCGCCUCUCUGGAUUCCUCGUCACUCAGCAGGGCAUCUCUGAGAGAGAUGCC, 0.18; in that of UACGUAGGUGGUUUUCCCCUGAUAGUGCUAAGGGGGCCUGGAAGUUUGGACUGGGCAGAGCUCAACACAGCGUGGCAAAGUGGCUGUGGCUAGACGGCCUCUCUGGAUUCCUCGUCACUCAGCAGGGCAUCUCUGAGAGAAGUGCC, 0.17. On to UACGUAGGUGGUUUUCCCCUGAUAGUGCUAAGGGGGCCUGGAAGUUUGGACUGGGCAGAGCUCAACACAGCGUGGCAAAGUGGCUGUGGCUAGACCGCCUCUCUGGAUUCCUGGUCACUCAGCAGGGCAUCUCUGAGAGAAAUGCC, for which the self-cleavage is 0.11. In the case of UACGUAGGUGGUUUUCCCCUGAUAGUGCUAAGGGGGCCUGGAAGUUUGGACUGGGCAGAGCUCAACACAGCGUGGCAAAGUGGCUGUGGCUAGACCGCCUCUCUGGAUUCCUAGUCACUCAGCAGGGCAUCUCUGAGAGAAAUGCC it was 0.05; in that of UACGUAGGUGGUUUUCCCCUGAUAGUGCUAAGGGGGCCUGGAAGUUUGGACUGGGCAGAGCUCAACACAGCGUGGCAAAGUGGCUGUGGCUAGACCGCCUCUCUGGAUUCCUUGUCACUCAGCAGGGCAUCUCUGAGAGAAAUGCC, 0.05.
